Experimental data reported in publication PMC5910394 (Nature Communications, 2018).

Target: T1, HER2 on BT474 cells (Homo sapiens, BT474 cells, UniProt P04626)
T1 construct: HER2 (human epidermal growth factor receptor 2) on HER2-overexpressing BT474 breast cancer cells; source: endogenous, on BT474 cells
Experiment: flow cytometry on cells; BT474 cells with 1, 10 or 100 nM of the AF647-carrying memAb complex
Details: one partner purified

B1: memAb pertuzumab IgG with pre-bound 5-diphenylalanine-meditope-Alexa-647 (complex)
VH: EVQLVESGGGLVQPGGSLRLSCAASGFTFTDYTMDWVRQSPGKGLEWVADVNPNSGGSIYNQRFKGRFTLSVDRSKNTLYLQMNSLRAEDTAIYYCARNLGDGFYAMDYWGQGTLVTVSS
VL: DIQLTQSPVILSASVGDRVTITCRAGESVDIFGVGFLHWYQQRTNGSPRLLIYRASNLESGVPSRFSGSGSRTDFTLTISSLQPEDEADYYCQQTNEDPYTFGAGTKVEIK
notes: as the heavy chain of Dm25; as the light chain of Dm25; as the peptide Dm26; non-covalent complex; source: IgG: ExpiCHO, purified; peptide: synthetic; copies: + +
- binding result: binds
